Read-outs that look alike come from different tables or passages of the source.
Assays:
[1] = cited from earlier work
[2] = Kinetic characterization of purified mutant NcXRs, substrate D-xylose (NADPH oxidation at A340); assay type: biochemical, Neurospora crassa
Procedure: (§1) NADPH concentration was kept >100 μM at all times, making it the non-rate-limiting reagent assuming no significant change in KM for mutants from the 1.8 μM for wild-type NcXR toward NADPH. All reactions were performed at pH 6.3 and 25° C., allowing for easy comparison to published data on wild-type NcXR. Initial reaction rate at each substrate concentration was measured by monitoring the rate of change at A340 upon addition of purified enzyme to the substrate mix. All readings were taken in at least two independent two data sets to minimize random error and eliminate experimental artifacts. […] Maximum reaction rates (kcat) were calculated based on molecular weight of dimeric NcXR.
(§2) Michaelis-Meten kinetic constants (KM, kcat) were determined. All reactions were performed at 25° C. in 50 mM MOPS buffer pH 6.3. NADPH concentration was kept >100 μM, usually between 100-400 μM and substrate concentrations were between 5 and 1500 mM for xylose and between 5 and 2000 mM for arabinose. Purified enzymes were kept on ice at all times to minimize thermal inactivation. Calculations were based on at least two independent datasets of two readings each, and were performed by least-squares fit method in Microcal Origin 5.0 (OriginLab Corporation, Northampton, Mass.). Substrate solutions were maintained at 25° C. in ThermoNESLAB RTE7 refrigerated water bath (Thermo Electron Corporation, Waltham, Mass.). A water-circulating jacketed the cuvette holder in Varian Cary 100 Bio UV-visible spectrophotometer (Varian, Palo Alto, Calif.). 500 μL substrate solution was added to a quartz cuvette with 10 mm path-length and mixed with 0.3-2 μg purified enzyme. Reaction rate was monitored as decrease in absorbance at 340 nm, corresponding to oxidation of NADPH (c=6220 M^−1 cm^−1) to NADP. Initial reaction rate was measured as the slope between 0.05 min and 0.25 min. Specific activity calculated for various substrate concentrations from initial reaction rates was used to calculate Michaelis-Menten constants.

[3] = Kinetic characterization of purified mutant NcXRs, substrate L-arabinose (NADPH oxidation at A340); assay type: biochemical, Neurospora crassa
Procedure: as §1, §2

[4] = XR of the named organism, cited from earlier work
[5] = XR of the named organism, read-out: KM, NADPH

B1: S. cerevisiae: xylose reductase (XR) from S. cerevisiae (protein, UniProt P38715 2-327, looked up)
NADPH-dependent aldose …: SSLVTLNNGLKMPLVGLGCWKIDKKVCANQIYEAIKLGYRLFDGACDYGNEKEVGEGIRKAISEGLVSRKDIFVVSKLWNNFHHPDHVKLALKKTLSDMGLDYLDLYYIHFPIAFKYVPFEEKYPPGFYTGADDEKKGHITEAHVPIIDTYRALEECVDEGLIKSIGVSNFQGSLIQDLLRGCRIKPVALQIEHHPYLTQEHLVEFCKLHDIQVVAYSSFGPQSFIEMDLQLAKTTPTLFENDVIKKVSQNHPGSTTSQVLLRWATQRGIAVIPKSSKKERLLGNLEIEKKFTLTEQELKDISALNANIRFNDPWTWLDGKFPTFA
For B1, the Km [1, 5] is listed as 7.6 µM.

B2: C. tenuis: xylose reductase (XR) from C. tenuis (protein, UniProt O74237 1-322, looked up)
NAD(P)H-dependent D-xylose …: MSASIPDIKLSSGHLMPSIGFGCWKLANATAGEQVYQAIKAGYRLFDGAEDYGNEKEVGDGVKRAIDEGLVKREEIFLTSKLWNNYHDPKNVETALNKTLADLKVDYVDLFLIHFPIAFKFVPIEEKYPPGFYCGDGNNFVYEDVPILETWKALEKLVAAGKIKSIGVSNFPGALLLDLLRGATIKPAVLQVEHHPYLQQPKLIEFAQKAGVTITAYSSFGPQSFVEMNQGRALNTPTLFAHDTIKAIAAKYNKTPAEVLLRWAAQRGIAVIPKSNLPERLVQNRSFNTFDLTKEDFEEIAKLDIGLRFNDPWDWDNIPIFV
For B2, the Km [1, 5] is given as 4.8 µM.

B3: wt: wild-type xylose reductase from Neurospora crassa, SEQ ID NO: 1 (NCU 08384.1) (protein, listed as Neurospora crassa)
chain: MVPAIKLNSGFDMPQVGFGLWKVDGSIASDVVYNAIKAGYRLFDGACDYGNEVECGQGVARAIKEGIVKREELFIVSKLWNTFHDGDRVEPIVRKQLADWGLEYFDLYLIHFPVALEYVDPSVRYPPGWHFDGKSEIRPSKATIQETWTAMESLVEKGLSKSIGVSNFQAQLLYDLLRYAKVRPATLQIEHHPYLVQQNLLNLAKAEGIAVTAYSSFGPASFREFNMEHAQKLQPLLEDPTIKAIGDKYNKDPAQVLLRWATQRGLAIIPKSSREATMKSNLNSLDFDLSEEDIKTISGFDRGIRFNQPTNYFSAENLWIFG
With B3 the “xylose over arabinose specificity, in words” value [2] was “higher than twofold”, the “Selectivity (xylose-to-arabinose)” value ([2]; ratio of catalytic efficiency between xylose and arabinose) was 2.4 and the “Catalytic Efficiency (relative)” value ([2]; substrate D-Xylose, relative to wt with D-xylose) was 100%. The Km ([3]; pH 6.3, 25° C., NADPH >100 μM) was 40000 µM, the kcat ([3]; pH 6.3, 25° C., based on dimeric NcXR) was 30 s⁻¹ and the “Catalytic Efficiency (relative)” value ([3]; relative to wt with D-xylose) was 41%. The kcat [4] was 60 s⁻¹, the Km ([4]; read-out: KM, xylose) was 34000 µM and the Km [1, 5] was 1.8 µM. The Km ([1]; wild-type NcXR, published value, read-out: KM toward NADPH) was 1.8 µM.

B4: P. siptitus: xylose reductase (XR) from P. siptitus as printed (protein, UniProt P31867 1-318, looked up)
NAD(P)H-dependent D-xylose …: MPSIKLNSGYDMPAVGFGCWKVDVDTCSEQIYRAIKTGYRLFDGAEDYANEKLVGAGVKKAIDEGIVKREDLFLTSKLWNNYHHPDNVEKALNRTLSDLQVDYVDLFLIHFPVTFKFVPLEEKYPPGFYCGKGDNFDYEDVPILETWKALEKLVKAGKIRSIGVSNFPGALLLDLLRGATIKPSVLQVEHHPYLQQPRLIEFAQSRGIAVTAYSSFGPQSFVELNQGRALNTSPLFENETIKAIAAKHGKSPAQVLLRWSSQRGIAIIPKSNTVPRLLENKDVNSFDLDEQDFADIAKLDINLRFNDPWDWDKIPIFV
For B4, the Km [1, 5] is given as 9 µM.
